In patent US20150118725A1 (GLOBAL BIOENERGIES, priority 2012, published 2015):

Key:
[1] = test system: Streptococcus mitis MDP decarboxylase (strain B6, SEQ ID NO: 10); assay: Phosphotransferase activity on mevalonate (pyruvate kinase/lactate dehydrogenase coupled ADP assay); format: biochemical; conditions: 40° C., pH 7.5, 5 mM ATP, 0 to 5 mM R,S-sodium mevalonate
Source text: (§1) 1.5 U/ml Lactate dehydrogenase
(§2) The pH was adjusted to 7.5.

[2] = Complementation assay: Th. acidophilum MDP decarboxylase (mutant L200E) with each tested MDP decarboxylase, isoprenol by GC-FID; format: biochemical; conditions: 0.01 mg Th. acidophilum (L200E) enzyme + 0.5 mg tested enzyme in 0.1 ml, 200 mM mevalonate, 37° C., 24 h (FIG. 7)
Method: MDP decarboxylases were evaluated using a complementation assay. Th. acidophilum MDP decarboxylase (mutant L200E) was incubated together with each tested enzyme from the library.
The combined enzymatic assay was carried out under the following conditions:
The pH was adjusted to 7.5
0.01 mg of the Th. acidophilum enzyme and 0.5 mg of the MDP decarboxylase to be tested were added to 0.1 ml of reaction mixture. Reaction mixture containing only […] of the Th. acidophilum MDP decarboxylase (L200E) was used as reference. The assays were incubated without shaking at 37° C. for 24 h in a sealed vial (Interchim). The isoprenol production was analyzed as follows. An aliquot of 50 μl of liquid phase was removed and mixed with 100 μl of ethyl acetate. 100 μl of the upper ethyl acetate phase was transferred to a clean vial for analysis by gas chromatography. Commercial isoprenol was used as reference. The samples were analyzed on a Varian GC-430 gas chromatograph equipped with a flame ionization detector (FID). […] The retention time of isoprenol in these conditions was 7.38 min.

[3] = Phosphotransferase activity: ADP release in the pyruvate kinase/lactate dehydrogenase coupled assay; format: biochemical; conditions: 40° C., pH 7.5
Source text: as §1, §2

[4] = Combined enzymatic assay: Th. acidophilum (L200E) and S. mitis MDP decarboxylases, isoprenol by GC; format: biochemical; conditions: 0 to 0.4 mg S. mitis enzyme with 0.01 mg Th. acidophilum (L200E) in 0.1 ml, 37° C., 24 h (FIG. 10)
Method: 0.01 mg of purified MDP decarboxylase from Th. acidophilum (mutant L200E) and 0.2 mg of purified MDP decarboxylase from S. mitis were added to 0.1 ml of reaction mixture. Control reactions were performed in which either no enzyme was added, or no ATP was added.
To validate the combined action of two enzymes, a series of additional controls were carried out. In one assay, MDP decarboxylase from S. mitis (0.21 mg) was the only enzyme using as the catalyst. In the other experiment, 0.21 mg of the Th. acidophilum (L200E) enzyme was added, lacking S. mitis decarboxylase. The assays were incubated in a sealed vial (Interchim) without shaking for 24 hours at 37° C. Isoprenol extraction and analysis were performed according to the procedure described in Example 4.
The effect of S. mitis MDP decarboxylase concentration was assessed under the following conditions:
0.01 mg of purified MDP decarboxylase from Th. acidophilum (mutant L200E) and a varying amount (from 0 to 0.4 mg) of purified MDP decarboxylase from S. mitis were added to 0.1 ml of reaction mixture. The mixtures were then incubated without shaking at 37° C. for 24 h in a sealed vial. Isoprenol extraction and analysis were performed according to the procedure described in Example 4.

[5] = substrate: CC(O)(CCO)CC(=O)O; assay: purified protein, by the assay type; format: biochemical, Thermoplasma acidophilum; conditions: other: 40° C., pH 7.5, 5 mM ATP, 0 to 5 mM R,S-sodium mevalonate
Source text: as §1, §2

## CC(O)(CCO)CC(=O)O (stereo not drawn) [mevalonate]
[1]
  Km: 200 µM
  kcat: 0.002 s⁻¹

B1: S. cerevisiae MDP decarboxylase: MDP decarboxylase of Saccharomyces cerevisiae, SEQ ID NO: 22 (protein, listed as Saccharomyces cerevisiae)
chain: MTVYTASVTAPVNIATLKYWGKRDTKLNLPTNSSISVTLSQDDLRTLTSAATAPEFERDTLWLNGEPHSIDNERTQNCLRDLRQLRKEMESKDASLPTLSQWKLHIVSENNFPTAAGLASSAAGFAALVSAIAKLYQLPQSTSEISRIARKGSGSACRSLFGGYVAWEMGKAEDGHDSMAVQIADSSDWPQMKACVLVVSDIKKDVSSTQGMQLTVATSELFKERIEHVVPKRFEVMRKAIVEKDFATFAKETMMDSNSFHATCLDSFPPIFYMNDTSKRIISWCHTINQFYGETIVAYTFDAGPNAVLYYLAENESKLFAFIYKLFGSVPGWDKKFTTEQLEAFNHQFESSNFTARELDLELQKDVARVILTQVGSGPQETNESLIDAKTGLPKE
[2]
  isoprenol production in combined assay: highest production of isoprenol

B2: Streptococcus mitis: MDP decarboxylase from Streptococcus mitis (strain B6), SEQ ID NO: 10 (protein)
chain: MDREPVTVRSYANIAIIKYWGKKKEKEMVPATSSISLTLENMYTETTLSSLPTDATADAFYINGQLQNEAEHVKMSKIIDRYRPDGDGFVRIDTQNSMPTAAGLSSSSSGLSALVKACNAYFKLGLNRSQLAQEAKFASGSSSRSFYGPLGAWDKDSGEIYPVETGLKLAMIMLVLEDKKKPISSRDGMKLCVETSTTFDDWVRQSEKDYQDMLVYLKANDFAKVGELTEKNALAMHATTKTASPAFSYLTDASYEAMDFVRQLREQGEACYFTMDAGPNVKVLCQEKDLEHLSEIFGQRYRLIVSKTKDLSQDGCC
modifications: Streptococcus mitis (strain B6)
[3]
  phosphotransferase activity (ADP production in the presence of mevalonate): reproducible increase in ADP production
[2]
  isoprenol production in combined assay: highest production of isoprenol
[4]
  effect of enzyme concentration on amount of produced isoprenol: increase of the amount of produced isoprenol

B3: Thermoplasma acidophilum MDP decarboxylase mutant L200E (SEQ ID NO: 16) (Thermoplasma acidophilum DSM 1728; L200E) (protein)
chain: MLHHHHHHTYRSIGSTAYPTIGVVLLGGIANPVTRTPLHTSAGIAYSDSCGSIRSETRIYADEATHIYFNGTESTDDNRSVRRVLDRYSSVFEEAFGTKTVSYSSQNFGILSGSSDAGAASIGAAILGLKPDLDPHDVENDLRAVSESAGRSLFGGLTITWSDGFHAYTEKILDPEAFSGYSIVAFAFDYQRNPSDVIHQNIVRSDEYPARKKHADEHAHMIKEYAKTNDIKGIFDLAQEDTEEYHSILRGVGVNVIRENMQKLISYLKLIRKDYWNAYIVTGGSNVYVAVESENADRLFSIENTFGSKKKMLRIVGGAWHRRPE
[5]
  Km: 500 µM
  kcat: 2.5 s⁻¹
  kcat/Km: 5000 M⁻¹ s⁻¹
